Starred links: 1 amine or outer side, 2 acyl side, 3 side chain; linkers in the order of their positions; H or OH if unused. Non-standard residues stand in square brackets, D forms with d. Groups on a side chain read outwards from the residue. No end group written: not given here. *: point of attachment. C18 diacid = O=C(O)CCCCCCCCCCCCCCCCC(=O)*; γGlu = O=C(O)[C@H](CCC(=O)[*:2])N[*:1]; εLys = N[C@@H](CCCCN[*:1])C(=O)[*:2]; Aib = CC(C)(N)C(=O)O
B1: Compound No. 27 (peptide)
peptide: Y[Aib]EGTFTSDYSILLEK([εLys-εLys-γGlu-C18 diacid])QAAREFIEWLLRGGPSSGAPPPS-OH
modifications: N-terminus assumed
SMILES: CC[C@H](C)[C@H](NC(=O)[C@H](Cc1ccccc1)NC(=O)[C@H](CCC(=O)O)NC(=O)[C@H](CCCNC(=N)N)NC(=O)[C@H](C)NC(=O)[C@H](C)NC(=O)[C@H](CCC(N)=O)NC(=O)[C@H](CCCCNC(=O)[C@@H](N)CCCCNC(=O)[C@@H](N)CCCCNC(=O)CC[C@H](NC(=O)CCCCCCCCCCCCCCCCC(=O)O)C(=O)O)NC(=O)[C@H](CCC(=O)O)NC(=O)[C@H](CC(C)C)NC(=O)[C@H](CC(C)C)NC(=O)[C@@H](NC(=O)[C@H](CO)NC(=O)[C@H](Cc1ccc(O)cc1)NC(=O)[C@H](CC(=O)O)NC(=O)[C@H](CO)NC(=O)[C@@H](NC(=O)[C@H](Cc1ccccc1)NC(=O)[C@@H](NC(=O)CNC(=O)[C@H](CCC(=O)O)NC(=O)C(C)(C)NC(=O)[C@@H](N)Cc1ccc(O)cc1)[C@@H](C)O)[C@@H](C)O)[C@@H](C)CC)C(=O)N[C@@H](CCC(=O)O)C(=O)N[C@@H](Cc1c[nH]c2ccccc12)C(=O)N[C@@H](CC(C)C)C(=O)N[C@@H](CC(C)C)C(=O)N[C@@H](CCCNC(=N)N)C(=O)NCC(=O)NCC(=O)N1CCC[C@H]1C(=O)N[C@@H](CO)C(=O)N[C@@H](CO)C(=O)NCC(=O)N[C@@H](C)C(=O)N1CCC[C@H]1C(=O)N1CCC[C@H]1C(=O)N1CCC[C@H]1C(=O)N[C@@H](CO)C(=O)O
B2: Compound No. 26 (peptide)
peptide: Y[Aib]EGTFTSDYSILLEK([εLys-εLys-γGlu-C18 diacid])QAAHEFINWLLAGGPSSGAPPPS-OH
modifications: N-terminus assumed
SMILES: CC[C@H](C)[C@H](NC(=O)[C@H](Cc1ccccc1)NC(=O)[C@H](CCC(=O)O)NC(=O)[C@H](Cc1c[nH]cn1)NC(=O)[C@H](C)NC(=O)[C@H](C)NC(=O)[C@H](CCC(N)=O)NC(=O)[C@H](CCCCNC(=O)[C@@H](N)CCCCNC(=O)[C@@H](N)CCCCNC(=O)CC[C@H](NC(=O)CCCCCCCCCCCCCCCCC(=O)O)C(=O)O)NC(=O)[C@H](CCC(=O)O)NC(=O)[C@H](CC(C)C)NC(=O)[C@H](CC(C)C)NC(=O)[C@@H](NC(=O)[C@H](CO)NC(=O)[C@H](Cc1ccc(O)cc1)NC(=O)[C@H](CC(=O)O)NC(=O)[C@H](CO)NC(=O)[C@@H](NC(=O)[C@H](Cc1ccccc1)NC(=O)[C@@H](NC(=O)CNC(=O)[C@H](CCC(=O)O)NC(=O)C(C)(C)NC(=O)[C@@H](N)Cc1ccc(O)cc1)[C@@H](C)O)[C@@H](C)O)[C@@H](C)CC)C(=O)N[C@@H](CC(N)=O)C(=O)N[C@@H](Cc1c[nH]c2ccccc12)C(=O)N[C@@H](CC(C)C)C(=O)N[C@@H](CC(C)C)C(=O)N[C@@H](C)C(=O)NCC(=O)NCC(=O)N1CCC[C@H]1C(=O)N[C@@H](CO)C(=O)N[C@@H](CO)C(=O)NCC(=O)N[C@@H](C)C(=O)N1CCC[C@H]1C(=O)N1CCC[C@H]1C(=O)N1CCC[C@H]1C(=O)N[C@@H](CO)C(=O)O
B3: Compound No. 3 (peptide)
peptide: Y[Aib]EGTFTSDYSYYLEK([εLys-εLys-γGlu-C18 diacid])QAAQEFVNWLLAGGPSSGAPPPS-NH2
modifications: N-terminus assumed
SMILES: CC(C)C[C@H](NC(=O)[C@H](CC(C)C)NC(=O)[C@H](Cc1c[nH]c2ccccc12)NC(=O)[C@H](CC(N)=O)NC(=O)[C@@H](NC(=O)[C@H](Cc1ccccc1)NC(=O)[C@H](CCC(=O)O)NC(=O)[C@H](CCC(N)=O)NC(=O)[C@H](C)NC(=O)[C@H](C)NC(=O)[C@H](CCC(N)=O)NC(=O)[C@H](CCCCNC(=O)[C@@H](N)CCCCNC(=O)[C@@H](N)CCCCNC(=O)CC[C@H](NC(=O)CCCCCCCCCCCCCCCCC(=O)O)C(=O)O)NC(=O)[C@H](CCC(=O)O)NC(=O)[C@H](CC(C)C)NC(=O)[C@H](Cc1ccc(O)cc1)NC(=O)[C@H](Cc1ccc(O)cc1)NC(=O)[C@H](CO)NC(=O)[C@H](Cc1ccc(O)cc1)NC(=O)[C@H](CC(=O)O)NC(=O)[C@H](CO)NC(=O)[C@@H](NC(=O)[C@H](Cc1ccccc1)NC(=O)[C@@H](NC(=O)CNC(=O)[C@H](CCC(=O)O)NC(=O)C(C)(C)NC(=O)[C@@H](N)Cc1ccc(O)cc1)[C@@H](C)O)[C@@H](C)O)C(C)C)C(=O)N[C@@H](C)C(=O)NCC(=O)NCC(=O)N1CCC[C@H]1C(=O)N[C@@H](CO)C(=O)N[C@@H](CO)C(=O)NCC(=O)N[C@@H](C)C(=O)N1CCC[C@H]1C(=O)N1CCC[C@H]1C(=O)N1CCC[C@H]1C(=O)N[C@@H](CO)C(N)=O
B4: Compound No. 29 (peptide)
peptide: Y[Aib]EGTFTSDYSILLEK([εLys-εLys-γGlu-C18 diacid])QAAQEFIEWLLAGGPSSGAPPPS-OH
modifications: N-terminus assumed
SMILES: CC[C@H](C)[C@H](NC(=O)[C@H](Cc1ccccc1)NC(=O)[C@H](CCC(=O)O)NC(=O)[C@H](CCC(N)=O)NC(=O)[C@H](C)NC(=O)[C@H](C)NC(=O)[C@H](CCC(N)=O)NC(=O)[C@H](CCCCNC(=O)[C@@H](N)CCCCNC(=O)[C@@H](N)CCCCNC(=O)CC[C@H](NC(=O)CCCCCCCCCCCCCCCCC(=O)O)C(=O)O)NC(=O)[C@H](CCC(=O)O)NC(=O)[C@H](CC(C)C)NC(=O)[C@H](CC(C)C)NC(=O)[C@@H](NC(=O)[C@H](CO)NC(=O)[C@H](Cc1ccc(O)cc1)NC(=O)[C@H](CC(=O)O)NC(=O)[C@H](CO)NC(=O)[C@@H](NC(=O)[C@H](Cc1ccccc1)NC(=O)[C@@H](NC(=O)CNC(=O)[C@H](CCC(=O)O)NC(=O)C(C)(C)NC(=O)[C@@H](N)Cc1ccc(O)cc1)[C@@H](C)O)[C@@H](C)O)[C@@H](C)CC)C(=O)N[C@@H](CCC(=O)O)C(=O)N[C@@H](Cc1c[nH]c2ccccc12)C(=O)N[C@@H](CC(C)C)C(=O)N[C@@H](CC(C)C)C(=O)N[C@@H](C)C(=O)NCC(=O)NCC(=O)N1CCC[C@H]1C(=O)N[C@@H](CO)C(=O)N[C@@H](CO)C(=O)NCC(=O)N[C@@H](C)C(=O)N1CCC[C@H]1C(=O)N1CCC[C@H]1C(=O)N1CCC[C@H]1C(=O)N[C@@H](CO)C(=O)O
B5: Compound No. 28 (peptide)
peptide: Y[Aib]EGTFTSDYSILLEK([εLys-εLys-γGlu-C18 diacid])QAAREFIEWLLRGGPESGAPPPS-OH
modifications: N-terminus assumed
SMILES: CC[C@H](C)[C@H](NC(=O)[C@H](Cc1ccccc1)NC(=O)[C@H](CCC(=O)O)NC(=O)[C@H](CCCNC(=N)N)NC(=O)[C@H](C)NC(=O)[C@H](C)NC(=O)[C@H](CCC(N)=O)NC(=O)[C@H](CCCCNC(=O)[C@@H](N)CCCCNC(=O)[C@@H](N)CCCCNC(=O)CC[C@H](NC(=O)CCCCCCCCCCCCCCCCC(=O)O)C(=O)O)NC(=O)[C@H](CCC(=O)O)NC(=O)[C@H](CC(C)C)NC(=O)[C@H](CC(C)C)NC(=O)[C@@H](NC(=O)[C@H](CO)NC(=O)[C@H](Cc1ccc(O)cc1)NC(=O)[C@H](CC(=O)O)NC(=O)[C@H](CO)NC(=O)[C@@H](NC(=O)[C@H](Cc1ccccc1)NC(=O)[C@@H](NC(=O)CNC(=O)[C@H](CCC(=O)O)NC(=O)C(C)(C)NC(=O)[C@@H](N)Cc1ccc(O)cc1)[C@@H](C)O)[C@@H](C)O)[C@@H](C)CC)C(=O)N[C@@H](CCC(=O)O)C(=O)N[C@@H](Cc1c[nH]c2ccccc12)C(=O)N[C@@H](CC(C)C)C(=O)N[C@@H](CC(C)C)C(=O)N[C@@H](CCCNC(=N)N)C(=O)NCC(=O)NCC(=O)N1CCC[C@H]1C(=O)N[C@@H](CCC(=O)O)C(=O)N[C@@H](CO)C(=O)NCC(=O)N[C@@H](C)C(=O)N1CCC[C@H]1C(=O)N1CCC[C@H]1C(=O)N1CCC[C@H]1C(=O)N[C@@H](CO)C(=O)O
B6: Compound No. 39 (peptide)
peptide: Y[Aib]EGTFTSDYSILLEEQAARK([εLys-εLys-γGlu-C18 diacid])FINWLLAGGPSSGAPPPS-OH
modifications: N-terminus assumed
SMILES: CC[C@H](C)[C@H](NC(=O)[C@H](Cc1ccccc1)NC(=O)[C@H](CCCCNC(=O)[C@@H](N)CCCCNC(=O)[C@@H](N)CCCCNC(=O)CC[C@H](NC(=O)CCCCCCCCCCCCCCCCC(=O)O)C(=O)O)NC(=O)[C@H](CCCNC(=N)N)NC(=O)[C@H](C)NC(=O)[C@H](C)NC(=O)[C@H](CCC(N)=O)NC(=O)[C@H](CCC(=O)O)NC(=O)[C@H](CCC(=O)O)NC(=O)[C@H](CC(C)C)NC(=O)[C@H](CC(C)C)NC(=O)[C@@H](NC(=O)[C@H](CO)NC(=O)[C@H](Cc1ccc(O)cc1)NC(=O)[C@H](CC(=O)O)NC(=O)[C@H](CO)NC(=O)[C@@H](NC(=O)[C@H](Cc1ccccc1)NC(=O)[C@@H](NC(=O)CNC(=O)[C@H](CCC(=O)O)NC(=O)C(C)(C)NC(=O)[C@@H](N)Cc1ccc(O)cc1)[C@@H](C)O)[C@@H](C)O)[C@@H](C)CC)C(=O)N[C@@H](CC(N)=O)C(=O)N[C@@H](Cc1c[nH]c2ccccc12)C(=O)N[C@@H](CC(C)C)C(=O)N[C@@H](CC(C)C)C(=O)N[C@@H](C)C(=O)NCC(=O)NCC(=O)N1CCC[C@H]1C(=O)N[C@@H](CO)C(=O)N[C@@H](CO)C(=O)NCC(=O)N[C@@H](C)C(=O)N1CCC[C@H]1C(=O)N1CCC[C@H]1C(=O)N1CCC[C@H]1C(=O)N[C@@H](CO)C(=O)O

How the values were obtained:
[1] = target: human GLP-1 receptor (human, UniProt P43220 24-463); assay: cell-based or functional assay
[2] = target: T1, human GIP receptor (human, UniProt P48546 22-466); assay: cell-based or functional assay
T1 sequence (looked up): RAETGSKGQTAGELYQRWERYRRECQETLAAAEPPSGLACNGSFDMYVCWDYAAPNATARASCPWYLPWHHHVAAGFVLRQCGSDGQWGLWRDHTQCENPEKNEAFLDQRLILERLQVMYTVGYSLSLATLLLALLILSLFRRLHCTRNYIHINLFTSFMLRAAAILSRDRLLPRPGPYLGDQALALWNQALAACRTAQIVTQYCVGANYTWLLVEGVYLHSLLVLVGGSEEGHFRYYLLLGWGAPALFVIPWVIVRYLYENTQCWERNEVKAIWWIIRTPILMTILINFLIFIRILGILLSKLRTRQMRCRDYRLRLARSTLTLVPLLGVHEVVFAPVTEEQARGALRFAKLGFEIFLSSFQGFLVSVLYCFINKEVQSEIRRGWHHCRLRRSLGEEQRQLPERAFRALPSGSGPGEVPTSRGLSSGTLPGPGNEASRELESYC

Binder | hGLP-1R, CRE Luc 0% HSA EC50 (pM) [1] | hGLP-1R, CRE Luc 1% HSA EC50 (pM) [1] | hGIPR, CRE Luc 0% HSA EC50 (pM) [2] | hGIPR, CRE Luc 1% HSA EC50 (pM) [2]
B1 | 4.6 pM | 127 pM | 6.3 pM | 132 pM
B2 | 7.4 pM | 595 pM | 4.9 pM | 153 pM
B3 | 8.5 pM | 626 pM | 6.9 pM | 229 pM
B4 | 16.8 pM | 378 pM | 3.8 pM | 102 pM
B5 | 6.2 pM | 139 pM | 6.6 pM | 86.5 pM
B6 | 8.2 pM | 135 pM | 28.4 pM | 365 pM

Source: patent US20230272029A1, “CO-AGONISTS AT GLP-1 AND GIP RECEPTORS SUITABLE FOR ORAL DELIVERY” (Novo Nordisk A/S, priority 2020, published 2023)
